pKd: −log10 of the molar value.

One substance from article PMC4259358, “Functional Characterization of Nuclear Localization and Export Signals in Hepatitis C Virus Proteins and Their Role in the Membranous Web” (PLoS ONE, 2014) can be followed below.

Test in all cases: ELISA; plates coated with synthetic peptide (10 µg/ml, carbonate buffer pH 9.6); increasing concentrations of recombinant NTF, 2 h, room temperature; anti-HIS detection; apparent Kd
Background: ELISA stands for enzyme-linked immunosorbent assay.

For assay [1], the target named is Core NLS 4 synthetic peptide (fused to penetratin) (hepatitis C virus | not stated).
Assay [2] addresses NS3 NLS 2 synthetic peptide (fused to penetratin) (hepatitis C virus | not stated).
Assay [3] deals with NS5A NLS synthetic peptide (fused to penetratin) (hepatitis C virus | not stated).
Assay [4] has as its target SV40 NLS synthetic peptide (fused to penetratin) (SV40 | not stated).

Consider “recombinant IPOA5 (importin α5/kap α1), P52294 1-538 (natural protein; other documents disagree on this pair)”, for which the pKd is 6.29 in assay [1], 7.44 in assay [2], 5.12 in assay [3] and 7.57 in assay [4].

The pKd is −log10 of the Kd, conventionally taken in molar units.
